These results are taken from patent US20260234700, “MUTANT CAS12J ENDONUCLEASES” (University of Copenhagen, published 2026).

Holding throughout (assay): cleavage_in_vitro; PAM TTC; 5 mM Mg2+
Common to all, as to conditions: tags: C-terminal His6; label: 5'-FAM on NT-strand, 3'-FAM on T-strand

In series [1] the target is T1, CasΦ3 Q197A (Biggiephage, Q197A).
T1 chain: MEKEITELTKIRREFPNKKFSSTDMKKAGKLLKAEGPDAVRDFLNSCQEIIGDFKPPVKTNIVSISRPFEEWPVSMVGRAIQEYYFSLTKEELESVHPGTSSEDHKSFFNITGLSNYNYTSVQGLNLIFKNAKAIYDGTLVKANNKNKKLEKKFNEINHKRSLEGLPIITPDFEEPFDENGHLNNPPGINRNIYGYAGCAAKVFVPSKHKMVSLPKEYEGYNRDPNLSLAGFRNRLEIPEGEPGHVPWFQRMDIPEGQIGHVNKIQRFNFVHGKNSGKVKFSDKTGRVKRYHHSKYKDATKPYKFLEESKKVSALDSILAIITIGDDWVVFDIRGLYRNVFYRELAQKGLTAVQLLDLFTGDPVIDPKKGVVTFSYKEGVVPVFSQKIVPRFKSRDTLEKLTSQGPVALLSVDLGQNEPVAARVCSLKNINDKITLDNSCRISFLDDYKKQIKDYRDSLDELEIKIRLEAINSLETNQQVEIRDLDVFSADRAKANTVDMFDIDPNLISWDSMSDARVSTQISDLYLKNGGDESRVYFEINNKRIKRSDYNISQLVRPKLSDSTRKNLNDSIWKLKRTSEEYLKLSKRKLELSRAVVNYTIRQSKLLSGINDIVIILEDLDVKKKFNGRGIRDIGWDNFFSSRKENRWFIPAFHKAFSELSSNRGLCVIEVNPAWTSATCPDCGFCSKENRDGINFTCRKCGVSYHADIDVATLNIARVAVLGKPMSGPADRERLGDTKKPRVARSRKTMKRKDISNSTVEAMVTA

For series [2], the target named is T2, CasΦ3 Q123A (Biggiephage, Q123A).
T2 chain: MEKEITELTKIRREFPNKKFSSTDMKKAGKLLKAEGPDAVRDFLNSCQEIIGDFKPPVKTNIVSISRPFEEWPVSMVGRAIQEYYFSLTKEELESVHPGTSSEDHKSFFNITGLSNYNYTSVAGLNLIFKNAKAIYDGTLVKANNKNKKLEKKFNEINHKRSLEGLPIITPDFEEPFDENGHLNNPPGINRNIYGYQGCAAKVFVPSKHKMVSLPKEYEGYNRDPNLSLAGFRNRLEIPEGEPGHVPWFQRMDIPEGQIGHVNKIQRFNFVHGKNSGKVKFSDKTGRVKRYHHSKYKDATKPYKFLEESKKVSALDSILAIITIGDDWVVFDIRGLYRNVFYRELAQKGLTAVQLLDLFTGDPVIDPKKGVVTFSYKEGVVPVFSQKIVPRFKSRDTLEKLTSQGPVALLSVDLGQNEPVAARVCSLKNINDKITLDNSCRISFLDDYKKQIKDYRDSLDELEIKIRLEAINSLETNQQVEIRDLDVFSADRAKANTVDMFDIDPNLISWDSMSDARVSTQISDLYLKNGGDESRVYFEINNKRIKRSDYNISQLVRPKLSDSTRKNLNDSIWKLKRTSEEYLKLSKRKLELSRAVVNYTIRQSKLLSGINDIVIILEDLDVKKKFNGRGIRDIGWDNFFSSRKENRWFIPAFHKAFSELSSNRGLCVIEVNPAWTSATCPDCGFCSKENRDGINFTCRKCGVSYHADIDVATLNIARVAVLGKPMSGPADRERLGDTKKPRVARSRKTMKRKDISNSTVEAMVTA

In series [3] the target is T3, CasΦ3 K30A (Biggiephage, K30A).
T3 chain: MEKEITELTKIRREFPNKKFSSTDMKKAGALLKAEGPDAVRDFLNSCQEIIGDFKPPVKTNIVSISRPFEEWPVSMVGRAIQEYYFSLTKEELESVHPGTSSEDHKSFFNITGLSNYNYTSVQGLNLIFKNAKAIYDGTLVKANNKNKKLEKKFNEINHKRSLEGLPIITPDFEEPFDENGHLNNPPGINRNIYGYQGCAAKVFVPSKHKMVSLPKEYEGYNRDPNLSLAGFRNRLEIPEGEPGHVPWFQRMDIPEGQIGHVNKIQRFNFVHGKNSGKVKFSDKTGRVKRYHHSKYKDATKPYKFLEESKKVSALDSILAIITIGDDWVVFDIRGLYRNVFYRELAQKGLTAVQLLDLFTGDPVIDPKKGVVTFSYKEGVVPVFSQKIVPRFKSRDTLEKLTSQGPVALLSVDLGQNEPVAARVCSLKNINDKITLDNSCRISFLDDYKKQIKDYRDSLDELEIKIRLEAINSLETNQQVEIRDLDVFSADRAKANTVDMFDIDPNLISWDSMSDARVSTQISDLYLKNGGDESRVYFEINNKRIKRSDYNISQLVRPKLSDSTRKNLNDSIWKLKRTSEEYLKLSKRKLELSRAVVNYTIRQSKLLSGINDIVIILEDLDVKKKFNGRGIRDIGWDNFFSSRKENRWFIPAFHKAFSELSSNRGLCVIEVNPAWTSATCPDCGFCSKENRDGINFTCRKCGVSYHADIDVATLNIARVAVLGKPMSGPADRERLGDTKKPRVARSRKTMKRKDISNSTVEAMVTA

B1: CasΦ3 crRNA ; FAM-labelled target dsDNA (5F-NT-TTC-30/3F-T-AAG-30) (ssRNA ; dsDNA)
RNA: UAUUGAUUGCCCAGUACGCUGGGACAGCUGGUAAUGGGAUACCUU
DNA 1: GTAATTCAGCTGGTAATGGGATACCTTGTGCTACAGC
DNA 2: GCTGTAGCACAAGGTATCCCATTACCAGCTGAATTAC
For the molecule B1, the activity was approximately 90 % reduction vs WT in series [1], approximately 90 % reduction vs WT in series [2] and approximately 55 % reduction vs WT in series [3].
